Measurements published in patent publication US20170360911A1 (SAPPORO MEDICAL UNIVERSITY, published 2017).

B1: As271_10 (peptide)
peptide: MLEAGAEANL
notes: read as 39 from its place between 38 and 40

target: T1, HLA-A*02:01 (human); experiment: T2-A24 MHC class I stabilization, flow cytometry, anti-HLA-A02 BB7.2-FITC, peptide 100 ug/mL
T1 construct: whole, on cells; Empty class I molecule on TAP-deficient T2-A24 cells; detected with anti-HLA-A02 antibody BB7.2

**Q.** For B1, which “MFI (solvent ratio)” value is on record?
**A.** The value was 1 ratio to solvent.

**Q.** QIDVDTVFEV (41-50 follows from start and length) [As41_10] was tested. Which “MFI (solvent ratio)” value did it give?
**A.** The value was 1.2 ratio to solvent.

**Q.** Which “MFI (solvent ratio)” value does the source give for GLSELVAFYV [As186_10] here?
**A.** Its value is 2.6 ratio to solvent.

**Q.** Which “MFI (solvent ratio)” value does the source give for FEVEDENMVL [As48_10] here?
**A.** The value was 1 ratio to solvent.

**Q.** PLLSLPLSL [As405_9] was tested. Which “MFI (solvent ratio)” value did it give?
**A.** Its value is 2.2 ratio to solvent.

**Q.** How did the “MFI (solvent ratio)” value turn out when HFGLSELVAFYV [As184_12] was run?
**A.** The value was 3.1 ratio to solvent.

**Q.** For IYPPQFHKV (also called ASB4 peptide) [IV9], which “MFI (solvent ratio)” value is on record?
**A.** The value was 0.9 ratio to solvent.

**Q.** How did the “MFI (solvent ratio)” value turn out when AILIQRQIDV [As35_10] was run?
**A.** Its value is 3.4 ratio to solvent.

**Q.** With DFGKLKAIL [As29_9] as the binder, how does the “MFI (solvent ratio)” value read?
**A.** The value was 1 ratio to solvent.

**Q.** With AAQPEICYQLL [As301_11] as the binder, how does the “MFI (solvent ratio)” value read?
**A.** Its value is 2.6 ratio to solvent.

**Q.** With KILCDRGAKL [As124_10] as the binder, how does the “MFI (solvent ratio)” value read?
**A.** The value was 1.6 ratio to solvent.

**Q.** HFCTTPSSIL [As145_10] was tested. Which “MFI (solvent ratio)” value did it give?
**A.** Its value is 1 ratio to solvent.

**Q.** Which “MFI (solvent ratio)” value does the source give for KQLVWRGANV [As157_10] here?
**A.** The value was 1.2 ratio to solvent.

**Q.** Which “MFI (solvent ratio)” value does the source give for HLSVLFGHV [As80_9] here?
**A.** The value was 1.6 ratio to solvent.

**Q.** For HVLMHMMLEA [As265_10], which “MFI (solvent ratio)” value is on record?
**A.** The value was 2 ratio to solvent.

**Q.** With KYWDFYHSLFTV [As365_12] as the binder, how does the “MFI (solvent ratio)” value read?
**A.** Its value is 1 ratio to solvent.

**Q.** Which “MFI (solvent ratio)” value does the source give for VLFGHVECLL [As83_10] here?
**A.** Its value is 3.6 ratio to solvent.

**Q.** AFYVEHGAIF [As192_10] was tested. Which “MFI (solvent ratio)” value did it give?
**A.** The value was 1.1 ratio to solvent.

**Q.** Which “MFI (solvent ratio)” value does the source give for LMDINGCAAI [As280_10] here?
**A.** The value was 3.1 ratio to solvent.

**Q.** YLLLEPEGII [As416_10] was tested. Which “MFI (solvent ratio)” value did it give?
**A.** Its value is 2.8 ratio to solvent.

**Q.** CYQLLLNHGA [As307_10] was tested. Which “MFI (solvent ratio)” value did it give?
**A.** Its value is 2.5 ratio to solvent.

**Q.** Which “MFI (solvent ratio)” value does the source give for SVLFGHVECL [As82_10] here?
**A.** The value was 3.3 ratio to solvent.

**Q.** IQYVLKVTSV [As289_10] was tested. Which “MFI (solvent ratio)” value did it give?
**A.** Its value is 1.2 ratio to solvent.

**Q.** How did the “MFI (solvent ratio)” value turn out when KYWDFYHSL [As365_9] was run?
**A.** The value was 1.1 ratio to solvent.

**Q.** Which “MFI (solvent ratio)” value does the source give for ATGLHLSVLF [As76_10] here?
**A.** Its value is 0.9 ratio to solvent.

**Q.** How did the “MFI (solvent ratio)” value turn out when KLKSSWATGL [As70_10] was run?
**A.** Its value is 1.1 ratio to solvent.

**Q.** How did the “MFI (solvent ratio)” value turn out when DFYHSLFTV [As368_9] was run?
**A.** The value was 1 ratio to solvent.

**Q.** With GYWLPSYKL [As63_9] as the binder, how does the “MFI (solvent ratio)” value read?
**A.** The value was 1.1 ratio to solvent.

**Q.** With LVLLDHNATI [As92_10] as the binder, how does the “MFI (solvent ratio)” value read?
**A.** The value was 2.6 ratio to solvent.

**Q.** For HVECLLVLL [As87_9], which “MFI (solvent ratio)” value is on record?
**A.** Its value is 1.5 ratio to solvent.

**Q.** For AIPLLSLPL [As403_9], which “MFI (solvent ratio)” value is on record?
**A.** Its value is 0.9 ratio to solvent.

**Q.** For RMLLDYKAEV [As236_10], which “MFI (solvent ratio)” value is on record?
**A.** The value was 3.3 ratio to solvent.

**Q.** With QYVLKVTSV [As290_9] as the binder, how does the “MFI (solvent ratio)” value read?
**A.** The value was 1 ratio to solvent.

**Q.** For CYSLSGHTAL [As135_10], which “MFI (solvent ratio)” value is on record?
**A.** The value was 1.6 ratio to solvent.

**Q.** With VVVNAYEHI [As340_9] as the binder, how does the “MFI (solvent ratio)” value read?
**A.** Its value is 0.9 ratio to solvent.

**Q.** With LLNHGAARI [As311_9] as the binder, how does the “MFI (solvent ratio)” value read?
**A.** Its value is 0.9 ratio to solvent.

**Q.** Which “MFI (solvent ratio)” value does the source give for ILCDRGAKL [As125_9] here?
**A.** Its value is 1.9 ratio to solvent.

**Q.** Which “MFI (solvent ratio)” value does the source give for PLAIAAYWAL [As211_10] here?
**A.** The value was 1.1 ratio to solvent.

**Q.** SLPLSLKKYL [As408_10] was tested. Which “MFI (solvent ratio)” value did it give?
**A.** Its value is 1 ratio to solvent.

**Q.** How did the “MFI (solvent ratio)” value turn out when SILCAKQLV [As152_9] was run?
**A.** Its value is 1.8 ratio to solvent.

**Q.** With TLMHLSRCAI [As383_10_5L] as the binder, how does the “MFI (solvent ratio)” value read?
**A.** Its value is 2.4 ratio to solvent.

**Q.** How did the “MFI (solvent ratio)” value turn out when KLVKRNFLEAL [As15_11] was run?
**A.** The value was 1 ratio to solvent.

target: T2, HLA-A*24:02 (human); experiment: T2-A24 MHC class I stabilization, flow cytometry, anti-HLA-A24 17A10-FITC, peptide 100 ug/mL;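 also: peptide exposure stabilizes otherwise empty class I molecules on T2 cell surfaces, so surface class I level reflects how strongly the peptide binds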
T2 construct: whole, on cells; Empty class I molecule on T2-A24 cells
Protocol: T2 cells can usually only express a low level of empty MHC class I molecules on the cell surface. However, when a peptide that can bind to the MHC class I molecule is added, the empty MHC class I molecule binds to the peptide and can be present on the cell surface in a stable manner. Therefore, the cell surface MHC class I expression level depends on the MHC class I binding affinity of a peptide.
The T2-A24 cells were subcultured at 37° C. under 5% CO₂. […] These peptides were dissolved in DMSO and further diluted by 200 times with RPMI 160 medium. A cell suspension and the peptide solution were mixed and cultured under conditions of 5% CO₂ and 26° C. for 16 to 18 hours. Co-culturing was carried out at a temperature of 37° C. for a further 3 hours, the supernatant was then removed by centrifuging, and cells were isolated. […] Subsequently, the cells were washed with 3% FBS-containing PBS, 4% paraformaldehyde phosphate buffer was added, and the mixture was allowed to stand at room temperature for 10 minutes to thus fix the cells. The fixed cells were subjected to measurement of FITC fluorescence intensity by a flow cytometer (FACScan). The mean fluorescence intensity (MFI) was calculated as a solvent ratio.

**Q.** With B1 as the binder, how does the “MFI (solvent ratio)” value read?
**A.** The value was 1.2 ratio to solvent.

**Q.** With QIDVDTVFEV (41-50 follows from start and length) [As41_10] as the binder, how does the “MFI (solvent ratio)” value read?
**A.** The value was 1.1 ratio to solvent.

**Q.** With GLSELVAFYV [As186_10] as the binder, how does the “MFI (solvent ratio)” value read?
**A.** The value was 1.1 ratio to solvent.

**Q.** How did the “MFI (solvent ratio)” value turn out when PLLSLPLSL [As405_9] was run?
**A.** Its value is 2.8 ratio to solvent.

**Q.** HFGLSELVAFYV [As184_12] was tested. Which “MFI (solvent ratio)” value did it give?
**A.** Its value is 3.2 ratio to solvent.

**Q.** With IYPPQFHKV (also called ASB4 peptide) [IV9] as the binder, how does the “MFI (solvent ratio)” value read?
**A.** Its value is 3.3 ratio to solvent.

**Q.** AILIQRQIDV [As35_10] was tested. Which “MFI (solvent ratio)” value did it give?
**A.** Its value is 1.1 ratio to solvent.

**Q.** With DFGKLKAIL [As29_9] as the binder, how does the “MFI (solvent ratio)” value read?
**A.** Its value is 1 ratio to solvent.

**Q.** For AAQPEICYQLL [As301_11], which “MFI (solvent ratio)” value is on record?
**A.** Its value is 2 ratio to solvent.

**Q.** How did the “MFI (solvent ratio)” value turn out when KILCDRGAKL [As124_10] was run?
**A.** Its value is 2.2 ratio to solvent.

**Q.** HFCTTPSSIL [As145_10] was tested. Which “MFI (solvent ratio)” value did it give?
**A.** Its value is 1.2 ratio to solvent.

**Q.** KQLVWRGANV [As157_10] was tested. Which “MFI (solvent ratio)” value did it give?
**A.** The value was 1 ratio to solvent.

**Q.** Which “MFI (solvent ratio)” value does the source give for HLSVLFGHV [As80_9] here?
**A.** The value was 2.1 ratio to solvent.

**Q.** KYWDFYHSLFTV [As365_12] was tested. Which “MFI (solvent ratio)” value did it give?
**A.** The value was 2.4 ratio to solvent.

**Q.** Which “MFI (solvent ratio)” value does the source give for VLFGHVECLL [As83_10] here?
**A.** The value was 2.8 ratio to solvent.

**Q.** AFYVEHGAIF [As192_10] was tested. Which “MFI (solvent ratio)” value did it give?
**A.** Its value is 2.2 ratio to solvent.

**Q.** LMDINGCAAI [As280_10] was tested. Which “MFI (solvent ratio)” value did it give?
**A.** The value was 1.2 ratio to solvent.

**Q.** With CYQLLLNHGA [As307_10] as the binder, how does the “MFI (solvent ratio)” value read?
**A.** Its value is 1.9 ratio to solvent.

**Q.** For SVLFGHVECL [As82_10], which “MFI (solvent ratio)” value is on record?
**A.** Its value is 2.7 ratio to solvent.

**Q.** With IQYVLKVTSV [As289_10] as the binder, how does the “MFI (solvent ratio)” value read?
**A.** The value was 1.5 ratio to solvent.

**Q.** Which “MFI (solvent ratio)” value does the source give for KYWDFYHSL [As365_9] here?
**A.** The value was 2.5 ratio to solvent.

**Q.** Which “MFI (solvent ratio)” value does the source give for ATGLHLSVLF [As76_10] here?
**A.** Its value is 2.1 ratio to solvent.

**Q.** How did the “MFI (solvent ratio)” value turn out when KLKSSWATGL [As70_10] was run?
**A.** The value was 1 ratio to solvent.

**Q.** With LLLNHGAARI [As310_10] as the binder, how does the “MFI (solvent ratio)” value read?
**A.** The value was 1.2 ratio to solvent.

**Q.** For DFYHSLFTV [As368_9], which “MFI (solvent ratio)” value is on record?
**A.** Its value is 1.1 ratio to solvent.

**Q.** With GYWLPSYKL [As63_9] as the binder, how does the “MFI (solvent ratio)” value read?
**A.** The value was 1.2 ratio to solvent.

**Q.** For LVLLDHNATI [As92_10], which “MFI (solvent ratio)” value is on record?
**A.** Its value is 1.1 ratio to solvent.

**Q.** How did the “MFI (solvent ratio)” value turn out when HVECLLVLL [As87_9] was run?
**A.** The value was 1.6 ratio to solvent.

**Q.** How did the “MFI (solvent ratio)” value turn out when AIPLLSLPL [As403_9] was run?
**A.** Its value is 1.1 ratio to solvent.

**Q.** With RMLLDYKAEV [As236_10] as the binder, how does the “MFI (solvent ratio)” value read?
**A.** The value was 1 ratio to solvent.

**Q.** CYSLSGHTAL [As135_10] was tested. Which “MFI (solvent ratio)” value did it give?
**A.** The value was 2.4 ratio to solvent.

**Q.** For VVVNAYEHI [As340_9], which “MFI (solvent ratio)” value is on record?
**A.** The value was 1 ratio to solvent.

**Q.** Which “MFI (solvent ratio)” value does the source give for LLNHGAARI [As311_9] here?
**A.** The value was 0.9 ratio to solvent.

**Q.** For ILCDRGAKL [As125_9], which “MFI (solvent ratio)” value is on record?
**A.** Its value is 1.8 ratio to solvent.

**Q.** With PLAIAAYWAL [As211_10] as the binder, how does the “MFI (solvent ratio)” value read?
**A.** The value was 2.1 ratio to solvent.

**Q.** Which “MFI (solvent ratio)” value does the source give for SLPLSLKKYL [As408_10] here?
**A.** The value was 1 ratio to solvent.

**Q.** For TLMHLSRCAI [As383_10_5L], which “MFI (solvent ratio)” value is on record?
**A.** Its value is 1 ratio to solvent.

**Q.** For KLVKRNFLEAL [As15_11], which “MFI (solvent ratio)” value is on record?
**A.** Its value is 1 ratio to solvent.

**Q.** RIYPPQFHKV [As318_10] was tested. Which “MFI (solvent ratio)” value did it give?
**A.** Its value is 3.6 ratio to solvent.
